Holding throughout (format): physicochemical
A short description of data set [1]: FRET kinetics of subunit exchange (tetramer dissociation). As to the method:
The speed of the exchange of subunits was measured by the same technique. The reaction is initiated by mixing the same volume of XCL-RITC (1 μM) and of XCL-FITC (1 μM) at 25° C. in 50 mM of phosphate buffer, 100 mM NaCl, pH 8.5. The excitation is carried out at 468 nm and the fluorescence emission at 580 nm is recorded every 0.5 seconds. The fluorescence intensity is normalised by using the equation: […]
where F(t) represents the experimental fluorescence in the time considered, F0 the value of the initial fluorescence, and F∞ the value of the final fluorescence when the state of equilibrium is reached. The kinetic data was modelled with the GOSA software (Czaplicki et al. (2006)). The best model was obtained for a double exponential of equation:
F=1−[a×e^−k^1^t+(1−a)×e^−k^2^t]
where: a represents the proportion of molecules at slow dissociation, k1 the kinetic constant of the slow dissociation and k2 the kinetic constant of the fast dissociation.
The dissociation kinetic of the tetramer was studied by mixing XCL-FITC and XCL-RITC and by measuring the fluorescence emission intensity at 580 nm as a function of time (FIG. 6).
The increase in the fluorescence intensity and therefore the effectiveness of the transfer between the fluorescein and the rhodamine are the result of two successive phenomena: firstly the dissociation of the tetramers into dimers and secondly their reassociation. Considering the shape of the curve (FIG. 6), no lag time is observed at the beginning of the kinetics which implies that the speed of reassociation is much faster than the speed of dissociation. It can therefore be considered that the speed of reassociation is negligible in this case. The kinetic data obtained was modelled using the GOSA software. The most suitable model for describing the phenomenon observed is a double exponential growth with two dissociation reactions that have difference speeds: […]

A short description of data set [2]: Chemical dissociation by size exclusion chromatography at acidic pH. The protocol:
(§1) The size exclusion chromatography experiments were carried out on a GE-Healthcare Superose 12 PC 3.2/30 column. The columns are pre-balanced in the buffer tested, namely phosphate buffer 50 mM, 100 mM NaCl, pH7.2 or pH 4.4 in the absence or in the presence of 0.003% of SDS. The flow rate is 0.5 mL/min. The BSA and the RNase A are used as a size marker.
The inventors studied the behaviour of XCL in denaturing chemical conditions close to those encountered in the lysosomes. The analysis was carried out via exclusion chromatography with an acidic pH (pH 4.4). It appears that the elution peak of XCL in these denaturing conditions is displaced to greater elution volumes showing the appearance of a smaller size. When 0.003% SDS is added, the elution peak is displaced to the elution volume of the RNAse A which has a molecular weight close to the XCL monomer.
The behaviour of the oxidised mutant A38C was also analysed. […] The addition of the disulphide bridge therefore increases the stability of the protein assembly.

The nature of data set [3]: Balanced FRET, exchange of monomers. To be noted: 1 h incubation, pH 8.5. As to the method:
Fluorescence energy transfer was used to reveal the exchange of the XCL monomers. The exchange reaction is initiated by mixing the same volume of XCL-RITC (1 μM or only the buffer as a reference) and of XCL-FITC (1 μM) at 25° C. in 50 mM of phosphate buffer, 100 mM NaCl, pH 8.5. After one hour of incubation, the emission spectrum of the sample excited at 490 nm is recorded by spectrofluorimetry (Photon Technology International QM-4). The same experiments were carried out with A38C-RITC and A38C-FITC.
The oligomerization balance of the XCL protein was characterised by the measurement of the appearance of resonance energy transfer of the Förster type (FRET) between two populations of XCL labelled separately either with FITC (Fluorescein IsoThioCyanate) or with RITC (Rhodamine IsoThioCyanate).
In this same figure, is also shown the spectrum obtained by mixing the labelled protein, either by the donor or by the acceptor (dotted line curve). This spectrum was deconvoluted, which gives the spectra shown as a dotted line in FIG. 2A.
For the purposes of comparison, the same experiment was carried out with the variant A38C. This variant is covalently bonded by two additional disulphide bridges. A perfectly superimposable spectrum was obtained after mixing donor and acceptor labelled proteins and incubation of this mixture for 1 h at ambient temperature (dotted lines of FIG. 3B).

Data set [4] is described as follows: Size exclusion chromatography at variable concentration, tetramer equilibrium. The protocol:
as §1
In order to confirm the data obtained in FRET, the displacement of the balance was evaluated by gel exclusion chromatography. Bovine Serum Albumin (BSA) and ribonuclease A were used to calibrate the column. Elution volumes of 12.6 ml and of 15.5 ml were obtained respectively. At a strong concentration (here 30 μM), XCL has an elution volume of 13.2 ml close to the elution volume of BSA as expected for tetrameric species. […] However, it was shown by digital simulation that according to the association rate, the rate of dissociation, the flow rate and separation characteristics of the column, two populations of molecules that are exchanging could lead to a single peak via size exclusion chromatography (Yu et al., (2006)). The inventors carried out several injections by using variable concentrations of XCL and observed that indeed a single peak was obtained. However this peak is displaced to longer elution volumes as the concentration decreases, indicating a smaller molecular weight.

Data set [5] can be described thus: SDS-PAGE of tetramer and disulphide bridge stability. The note with it: 2% of SDS, not heated before deposit. As to the method: The clone A38C was obtained by directed mutagenesis by using the XCL plasmid as a matrix and the protein produced and purified by using the same protocol as that used to produce XCL (Trigueros et al. (2003)). A yield of 25 mg of purified protein per litre of culture was obtained. The last part of the protocol consisted in a step of oxidation for 12 hours in the presence of 10 mM of oxidised glutathione. This step is required in order to produce disulphide bridges between the monomers. The forming of these covalent bonds was verified by SDS-PAGE. Two SDS-PAGE were prepared. Beta-mercaptoethanol was added to the samples in the first gel while beta-mercaptoethanol was not added to the second gel. When XCL is heated to 95° C. 5 min before the deposit, a single band is observed with a molecular weight slightly greater than 20 kDa on the two gels. This band corresponds to the species in monomer form.
A variant T12C was produced in the same manner as A38C by directed mutagenesis by using the XCL plasmid as a matrix. By using the same protocol, 10 mg of protein per litre of culture were produced. The oxidation rate of the variant T12C was sought by using the same method by SDS-PAGE as for A38C. These rates were compared with those obtained with the variant A38C. Several oxidative conditions were tested with different concentrations of reduced glutathione. […]

Where [6] appears, read: 25° C., pH 8.5, double exponential model.

Data on one molecule can be found in patent publication US20150182631A1, “SYSTEM FOR […]-BASED ACTIVE INGREDIENTS” (Centre National De La Recherche Scientifique-CNRS, priority 2012, published 2015).

B1: XCL: Xerocomus chrysenteron lectin, fungal sporocarp lectin forming a tetramer with central cavity, SEQ ID NO: 1 (protein)
chain: MSYSITLRVYQTNRDRGYFSIVEKTVWHFANGGTWSEANGAHTLTQGGSGTSGVLRFLSTKGERITVAVGVHNYKRWCDVVTGLKPDETALVINPQYYNNGGRDYVREKQLAEYSVTSAIGTKVEVVYTVAEGNNLEANVIFS
modifications: Xerocomus chrysenteron
In the case of B1, in data set [1] (setting [6]), the “a: proportion of molecules engaged in the slow reaction” value is listed as 0.39, the “k1: kinetic constant of the slowest dissociation reaction” value is 0.72 min⁻¹ and the “k2: kinetic constant of the fastest dissociation reaction” value came out at 2.52 min⁻¹. In data set [1] (mixing XCL-FITC and XCL-RITC), the “time until balance of fluorescence intensity at 580 nm is reached” value is reported as “more than 300 seconds”. For the same molecule, in data set [2] (pH 4.4, 0.003% SDS), the “oligomeric state by elution volume at pH 4.4 with SDS” value is reported as “these dimers are dissociated into monomers”. Also, in data set [2] (pH 4.4, no SDS), the “oligomeric state by elution volume at pH 4.4” value was “dissociation of the tetramer into a dimer”. Moreover, in data set [3], the “FRET between FITC- and RITC-labelled protein after mixing (monomer redistribution)” value was “monomers have been redistributed”. For the same molecule, the “concentration of the transition in elution volume” value in data set [4] is “close to the micromolar”. Also, in data set [5], the “oligomeric form on SDS-PAGE” value is “remained in tetrameric form”.
